Laboratory results from patent US20110245145.

Test system: HA-βarrestin2 1-185

## endogenous Src of Hep3B hepatocytes
  insulin-stimulated phosphorylations of Akt, GSK3P, and Foxo1: markedly reduced in the presence of βarrestin2 1-185
